Holding throughout (test): BLI
The target of assay [1] is p52Shc lacking the PTB domain (p52ShcΔPTB), terminally biotinylated.
The target of assay [2] is T1, p52Shc lacking SH2 domain (p52ShcΔSH2), terminally biotinylated (biotin, terminal (end not stated)).
T1 chain: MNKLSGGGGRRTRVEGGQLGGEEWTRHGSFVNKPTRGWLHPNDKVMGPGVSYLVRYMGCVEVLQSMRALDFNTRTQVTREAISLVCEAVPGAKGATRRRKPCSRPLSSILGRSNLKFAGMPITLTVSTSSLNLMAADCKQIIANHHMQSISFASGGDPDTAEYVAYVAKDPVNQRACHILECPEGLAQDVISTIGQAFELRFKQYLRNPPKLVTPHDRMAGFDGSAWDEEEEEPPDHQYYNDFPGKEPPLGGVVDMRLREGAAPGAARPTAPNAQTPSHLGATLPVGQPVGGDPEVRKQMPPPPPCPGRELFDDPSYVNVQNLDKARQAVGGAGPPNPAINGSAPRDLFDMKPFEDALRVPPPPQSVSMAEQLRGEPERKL

Assay [3] deals with T2, full-length p52Shc, terminally biotinylated (UniProt P29353-2 1-473, biotin, terminal (end not stated)).
T2 sequence (looked up): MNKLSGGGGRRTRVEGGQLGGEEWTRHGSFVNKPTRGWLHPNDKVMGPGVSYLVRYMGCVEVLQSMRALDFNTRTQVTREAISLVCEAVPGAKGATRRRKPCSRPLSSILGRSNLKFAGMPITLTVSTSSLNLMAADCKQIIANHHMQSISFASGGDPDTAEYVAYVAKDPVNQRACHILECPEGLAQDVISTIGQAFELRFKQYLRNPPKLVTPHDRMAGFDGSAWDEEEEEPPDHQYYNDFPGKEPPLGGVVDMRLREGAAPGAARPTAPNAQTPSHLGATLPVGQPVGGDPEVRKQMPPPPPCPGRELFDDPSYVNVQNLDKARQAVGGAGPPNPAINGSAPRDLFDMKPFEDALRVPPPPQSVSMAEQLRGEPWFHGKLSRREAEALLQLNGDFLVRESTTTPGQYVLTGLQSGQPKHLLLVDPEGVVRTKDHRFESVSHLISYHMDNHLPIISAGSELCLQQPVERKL

Assay [4] concerns the target T3, non-phosphorylated full size p52Shc (treated with alkaline phosphatase) (UniProt P29353-2 1-473, biotin, terminal (end not stated)).
T3 sequence (looked up): T2 sequence (looked up)

A value given as a limit tells only on which side of the number the result lay.

In assay [1], “p47^phox::His (not biotinylated) (from UniProt P14598 1-390) (natural protein)” returned a fold weaker affinity than full-length p52Shc of 10 fold.

B1: p47^phox::His (not biotinylated) (natural protein, UniProt P14598 1-390, looked up)
chain: MGDTFIRHIALLGFEKRFVPSQHYVYMFLVKWQDLSEKVVYRRFTEIYEFHKTLKEMFPIEAGAINPENRIIPHLPAPKWFDGQRAAENRQGTLTEYCSTLMSLPTKISRCPHLLDFFKVRPDDLKLPTDNQTKKPETYLMPKDGKSTATDITGPIILQTYRAIANYEKTSGSEMALSTGDVVEVVEKSESGWWFCQMKAKRGWIPASFLEPLDSPDETEDPEPNYAGEPYVAIKAYTAVEGDEVSLLEGEAVEVIHKLLDGWWVIRKDDVTGYFPSMYLQKSGQDVSQAQRQIKRGAPPRRSSIRNAHSIHQRSRKRLSQDAYRRNSVRFLQQRRRQARPGPQSPGSPLEEERQTQRSKPQPAVPPRPSADLILNRCSESTKRKLASAV
With B1, the EC50 – broadly, the concentration giving half of the maximal effect – in assay [2] is more than 50000 nM. Besides, the Kd (as a rule, the concentration at which binding is half-saturated) came out at 200 nM in assay [3] and 780 nM in assay [4].
